Patent US20210140973A1 (NITTO BOSEKI, published 2021)

How the values were obtained:
[1] = target: T1, human IgG4 purified from human serum (human); assay: SPR (Biacore), IgG4 immobilized on chip by amino coupling, antibody as analyte
T1 construct: also called IgG4 antigen; human IgG4-sensitized latex
Method: MaI4-08 and MaI4-09-produced antibodies, and, as a control, MaI4-05-produced antibody and 1 mg/mL of HP6025 were adjusted to 1 mg/mL. In addition, 1 mg/mL of IgG4 was prepared from the one purified from human serum. According to the protocol of Sumika Chemical Analysis Service, Ltd., IgG4 was immobilized onto a chip by an amino coupling method, and a sensorgram was obtained by a Biacore model. The obtained binding rate constant (kₐ), dissociation rate constant (kd), and dissociation constant (KD) were as shown in Table 11.

[2] = target: T2, Myeloma human IgG2 (EMD Millipore) (human); assay: latex agglutination inhibition; 3000 mg/dL myeloma protein as free sample against IgG4-sensitized latex, read on the IgG4 calibration curve
T2 construct: Bought myeloma protein
T2 sequence (constant, as listed by the source limits assumed): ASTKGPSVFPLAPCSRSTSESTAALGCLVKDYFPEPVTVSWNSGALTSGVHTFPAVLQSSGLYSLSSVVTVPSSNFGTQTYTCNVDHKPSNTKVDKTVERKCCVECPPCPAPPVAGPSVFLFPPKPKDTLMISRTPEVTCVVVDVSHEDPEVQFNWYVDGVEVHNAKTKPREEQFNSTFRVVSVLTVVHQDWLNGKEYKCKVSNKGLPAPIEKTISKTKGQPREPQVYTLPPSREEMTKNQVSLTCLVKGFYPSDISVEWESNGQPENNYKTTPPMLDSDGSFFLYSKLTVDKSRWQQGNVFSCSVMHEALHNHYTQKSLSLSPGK
Method: In a case where the MaI4-08-produced antibody or the MaI4-09-produced antibody was used as an anti-human IgG4 mouse monoclonal antibody in the first reagent, specificity to human IgG4 was evaluated. As a sample, Myeloma human IgG4 solution (EMD Millipore) adjusted to 3000 mg/dL was used. In addition, as control samples, Myeloma human IgG1 solution (EMD Millipore), Myeloma human IgG2 solution (EMD Millipore), and Myeloma human IgG3 solution (Sigma-Aldrich Co. LLC) prepared similarly to the above were used. A saline solution was used as a blank sample. For the measurement of human IgG4 concentrations, 120 μL of the first reagent and 120 μL of the second reagent were reacted with 3 μL of a sample using Hitachi type 7180 automatic analyzer, and change amount of absorbance in the range of photometric points of 18 to 28 (corresponding to 1 minute to 4 minutes after addition of R2) was measured at a main wavelength of 570 nm and a complementary wavelength of 800 nm by a two-point end method (n=2). A calibration curve was created from the results of Table 8 and the human IgG4 concentration in a sample was calculated therefrom.

T1 sequence (constant, as listed by the source limits assumed): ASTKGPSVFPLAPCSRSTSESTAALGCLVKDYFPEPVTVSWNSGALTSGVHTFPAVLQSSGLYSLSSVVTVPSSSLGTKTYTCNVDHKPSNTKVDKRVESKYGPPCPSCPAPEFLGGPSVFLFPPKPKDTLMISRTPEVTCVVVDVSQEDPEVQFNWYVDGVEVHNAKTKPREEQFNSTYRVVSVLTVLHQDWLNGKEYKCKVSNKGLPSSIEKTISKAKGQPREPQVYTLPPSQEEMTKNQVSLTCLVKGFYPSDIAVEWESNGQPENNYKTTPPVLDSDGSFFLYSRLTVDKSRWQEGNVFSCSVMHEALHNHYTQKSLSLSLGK

B1: MaI4-08-produced antibody (antibody, IgG1, V domains shown)
VH: EVQLQQSGPELVKPGTSVKMSCKASGYIFTSYILHWVKQKPGQGLEWIAYINPYNDGTKYKEKFKGKGTLTSDKSSSTAYMELSSLTSEDSAVYYCARSGGGYGNYAWFAYWGPGTLVTVST
VL: DIQMTQSPSSLSASLGERVSLTCRASQDIGSSLNWLQQEPDGTIKRLIYATSSLDSGVPKRFSGSRSGSDYSLTISSLESEDFVDYYCLQYASYPPTFGAGTKLELK
notes: Purified on protein G from hybridoma culture supernatant; POD-labelled for the Western blots
[1]
  Kd: 406 pM
  koff: 0.000223 s⁻¹
  kon: 549000 M⁻¹ s⁻¹
[2]
  Measured value (apparent human IgG4 concentration): 12.8 mg/dL
